Experimental data: IntAct's records for PubMed 24144979

B1: Zinc finger protein RFP (Homo sapiens), P14373 (parent)
chain: MASGSVAECLQQETTCPVCLQYFAEPMMLDCGHNICCACLARCWGTAETNVSCPQCRETFPQRHMRPNRHLANVTQLVKQLRTERPSGPGGEMGVCEKHREPLKLYCEEDQMPICVVCDRSREHRGHSVLPLEEAVEGFKEQIQNQLDHLKRVKDLKKRRRAQGEQARAELLSLTQMEREKIVWEFEQLYHSLKEHEYRLLARLEELDLAIYNSINGAITQFSCNISHLSSLIAQLEEKQQQPTRELLQDIGDTLSRAERIRIPEPWITPPDLQEKIHIFAQKCLFLTESLKQFTEKMQSDMEKIQELREAQLYSVDVTLDPDTAYPSLILSDNLRQVRYSYLQQDLPDNPERFNLFPCVLGSPCFIAGRHYWEVEVGDKAKWTIGVCEDSVCRKGGVTSAPQNGFWAVSLWYGKEYWALTSPMTALPLRTPLQRVGIFLDYDAGEVSFYNVTERCHTFTFSHATFCGPVRPYFSLSYSGGKSAAPLIICPMSGIDGFSGHVGNHGHSMETSP

Variants of: B1
Conditions: with ubp7_human USP7, Q93009
Chain of ubp7_human USP7, Q93009 (Q93009 whole entry, looked up): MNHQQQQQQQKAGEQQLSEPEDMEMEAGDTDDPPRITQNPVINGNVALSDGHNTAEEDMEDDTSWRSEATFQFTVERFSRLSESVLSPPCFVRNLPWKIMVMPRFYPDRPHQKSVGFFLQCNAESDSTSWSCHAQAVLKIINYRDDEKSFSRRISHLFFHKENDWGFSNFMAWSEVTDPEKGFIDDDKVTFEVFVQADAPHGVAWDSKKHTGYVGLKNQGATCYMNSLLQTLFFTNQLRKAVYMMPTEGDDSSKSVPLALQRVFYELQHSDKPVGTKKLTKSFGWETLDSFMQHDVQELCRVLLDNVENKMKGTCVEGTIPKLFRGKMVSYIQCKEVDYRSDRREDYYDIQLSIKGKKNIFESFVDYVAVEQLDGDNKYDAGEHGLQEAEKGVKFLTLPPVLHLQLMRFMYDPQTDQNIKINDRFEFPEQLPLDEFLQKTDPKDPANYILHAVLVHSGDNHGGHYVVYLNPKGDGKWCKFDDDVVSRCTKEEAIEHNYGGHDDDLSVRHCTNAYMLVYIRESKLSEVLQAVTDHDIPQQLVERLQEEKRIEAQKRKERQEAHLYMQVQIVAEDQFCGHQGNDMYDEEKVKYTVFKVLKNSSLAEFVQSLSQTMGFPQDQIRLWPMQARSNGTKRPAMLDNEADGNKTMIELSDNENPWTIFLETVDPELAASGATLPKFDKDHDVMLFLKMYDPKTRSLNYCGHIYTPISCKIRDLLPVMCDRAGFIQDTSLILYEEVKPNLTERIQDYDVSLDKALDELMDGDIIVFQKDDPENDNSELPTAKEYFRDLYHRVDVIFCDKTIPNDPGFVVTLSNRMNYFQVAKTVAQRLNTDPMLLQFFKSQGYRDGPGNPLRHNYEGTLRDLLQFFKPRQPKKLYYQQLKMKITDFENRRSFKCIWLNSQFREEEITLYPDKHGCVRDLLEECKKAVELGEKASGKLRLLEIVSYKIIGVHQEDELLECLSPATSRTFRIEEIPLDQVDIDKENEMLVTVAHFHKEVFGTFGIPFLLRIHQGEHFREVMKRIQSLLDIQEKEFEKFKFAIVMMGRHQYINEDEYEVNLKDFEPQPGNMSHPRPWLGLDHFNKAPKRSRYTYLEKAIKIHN

effect of a mutation on the interaction | Variant
with no effect | MASGSVAECLQQETTCPVCLQYFAEPMMLDCGHNICCACLARCWGTAETNVSCPQCRETFPQRHMRPNRHLANVTQLVKQLRTERPSGPGGEMGVAEKAREPLKLYCEEDQMPICVVCDRSREHRGHSVLPLEEAVEGFKEQIQNQLDHLKRVKDLKKRRRAQGEQARAELLSLTQMEREKIVWEFEQLYHSLKEHEYRLLARLEELDLAIYNSINGAITQFSCNISHLSSLIAQLEEKQQQPTRELLQDIGDTLSRAERIRIPEPWITPPDLQEKIHIFAQKCLFLTESLKQFTEKMQSDMEKIQELREAQLYSVDVTLDPDTAYPSLILSDNLRQVRYSYLQQDLPDNPERFNLFPCVLGSPCFIAGRHYWEVEVGDKAKWTIGVCEDSVCRKGGVTSAPQNGFWAVSLWYGKEYWALTSPMTALPLRTPLQRVGIFLDYDAGEVSFYNVTERCHTFTFSHATFCGPVRPYFSLSYSGGKSAAPLIICPMSGIDGFSGHVGNHGHSMETSP [C96A;H99A]
decreasing interaction strength | MASGSVAECLQQETTCPVCLQYFAEPMMLDCGHNICCACLARCWGTAETNVSCPQCRETFPQRHMRPNRHLANVTQLVRQLRTERPSGPGGEMGVCEKHREPLKLYCEEDQMPICVVCDRSREHRGHSVLPLEEAVEGFKEQIQNQLDHLKRVKDLKKRRRAQGEQARAELLSLTQMEREKIVWEFEQLYHSLKEHEYRLLARLEELDLAIYNSINGAITQFSCNISHLSSLIAQLEEKQQQPTRELLQDIGDTLSRAERIRIPEPWITPPDLQEKIHIFAQKCLFLTESLKQFTEKMQSDMERIQELREAQLYSVDVTLDPDTAYPSLILSDNLRQVRYSYLQQDLPDNPERFNLFPCVLGSPCFIAGRHYWEVEVGDRARWTIGVCEDSVCRKGGVTSAPQNGFWAVSLWYGKEYWALTSPMTALPLRTPLQRVGIFLDYDAGEVSFYNVTERCHTFTFSHATFCGPVRPYFSLSYSGGKSAAPLIICPMSGIDGFSGHVGNHGHSMETSP [K79R;K304R;K380R;K382R]
with no effect | MASGSVAECLQQETTCPVCLQYFAEPMMLDCGHNICCACLARCWGTAETNVSCPQCRETFPQRHMRPNRHLANVTQLVKQLRTERPSGPGGEMGVCEKHREPLKLYCEEDQMPICVVADRSREARGHSVLPLEEAVEGFKEQIQNQLDHLKRVKDLKKRRRAQGEQARAELLSLTQMEREKIVWEFEQLYHSLKEHEYRLLARLEELDLAIYNSINGAITQFSCNISHLSSLIAQLEEKQQQPTRELLQDIGDTLSRAERIRIPEPWITPPDLQEKIHIFAQKCLFLTESLKQFTEKMQSDMEKIQELREAQLYSVDVTLDPDTAYPSLILSDNLRQVRYSYLQQDLPDNPERFNLFPCVLGSPCFIAGRHYWEVEVGDKAKWTIGVCEDSVCRKGGVTSAPQNGFWAVSLWYGKEYWALTSPMTALPLRTPLQRVGIFLDYDAGEVSFYNVTERCHTFTFSHATFCGPVRPYFSLSYSGGKSAAPLIICPMSGIDGFSGHVGNHGHSMETSP [C118A;H124A]

Variants of: B1
Conditions: with ubp7_human USP7, Q93009
Remark: another data set of the same source

effect of a mutation on the interaction | Variant
disrupting interaction strength | MASGSVAECLQQETTCPVCLQYFAEPMMLDCGHNICCACLARCWGTAETNVSCPQCRETFPQRHMRPNRHLANVTQLVRQLRTERPSGPGGEMGVCEKHREPLKLYCEEDQMPICVVCDRSREHRGHSVLPLEEAVEGFKEQIQNQLDHLKRVKDLKKRRRAQGEQARAELLSLTQMEREKIVWEFEQLYHSLKEHEYRLLARLEELDLAIYNSINGAITQFSCNISHLSSLIAQLEEKQQQPTRELLQDIGDTLSRAERIRIPEPWITPPDLQEKIHIFAQKCLFLTESLKQFTEKMQSDMERIQELREAQLYSVDVTLDPDTAYPSLILSDNLRQVRYSYLQQDLPDNPERFNLFPCVLGSPCFIAGRHYWEVEVGDRARWTIGVCEDSVCRKGGVTSAPQNGFWAVSLWYGKEYWALTSPMTALPLRTPLQRVGIFLDYDAGEVSFYNVTERCHTFTFSHATFCGPVRPYFSLSYSGGKSAAPLIICPMSGIDGFSGHVGNHGHSMETSP [K79R;K304R;K380R;K382R]
